Laboratory results as given in the supplement of paper PMC12764529.
± gives the half width of the 95% confidence interval.

Assay: folding stability dG unfold from chymotrypsin proteolysis; higher = more stable
Outline: (§1)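 Unfolding free energy was derived, per protease or combined, by relating Bayesian-fitted K50 values from sequencing counts to a sequence-predicted unfolded-state K50 and a shared folded-state K50. The underlying digests exposed cysteine-free mini-proteins under 80 residues, in a PA-tagged cDNA display construct, to trypsin and chymotrypsin at 11 threefold-diluted concentrations and to a no-protease condition. A filter kept only designs with AlphaFold2 dimer inter-PAE above 15.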

Sequence | folding stability dG unfold
SAGGSAGGSMYRVRIKVRNRETGEWLEIELEVPEGVTEEELKAALRELFPDAEIVDIEIEKLPSAGGSAGGS [r12_738_TrROS_Hall] | 4.34 ± 0.11 kcal/mol
SAGGSAMKKIPKENVEKVIEFTDKNGKKITIVYNKKTGKAYIFDKKTKKVIEIDMTEDEIKKLLKSSAGGSA [r15_810_TrROS_Hall] | 2.13 ± 0.061 kcal/mol
SFRIMASYDPDYGTITVYVQFQDPDNGEPIPAEEIAKEIAEQFPGAKIDDIEPNPDGWFKIEIKVPPGAFSA [r9_87_TrROS] | 2.55 ± 0.044 kcal/mol
SAGGSMTISYDPSTGTVTITDPTVPLNTPRSITITFPGGETFTATLTPLPDNSATATYTVVPTAGASAGGSA [r2_89_JUSTAS] | 1.09 ± 0.1 kcal/mol
SKKVKIVIKIKVEVTNKDGKKKTFEFTLVIELSEEEIEKLKKKIEDLLNELKKKYPNIKKVEITEIKILPSA [r9_436_TrROS_Hall] | 4.4 ± 0.32 kcal/mol
SLEEKIKEAIENSPPNSEVIVPLPDDRTVKITVTPETVTGDGRRRLRIKVTITIYDPSGTKLGEKVLEIPLS [r1_386_JUSTAS] | 4.12 ± 0.17 kcal/mol
STSTTITYPTLTISVEESVLPDGTPRYTVTLHLPEKGVSIPVEVDSAAEAEEAVREAIRKLLPDETVEEESA [r9_749_JUSTAS] | 2.24 ± 0.16 kcal/mol
SAGGMSEEVRKLAEELAKKLNIEKVEVLPDGTVRITLKNGKKIEIKVEKVEVKEVKVEVEVEEVEEESAGGS [r16_296_TrROS_Hall] | 4.11 ± 0.28 kcal/mol
SAGSMEALRALAEELAAEIAAAARAAGREVEVDITEVRPGEVRIRVTTTPPGGERTVEDIEIALPEERLSAG [r5_994_JUSTAS] | 1.82 ± 0.026 kcal/mol
SAKKIILIKAESEEELKKAIEEAKKLAEEGKKVEIIIETPKGLILIEIDVKTKKIKIKNLETGEEIELESAG [r14_423_TrROS_Hall] | 0.375 ± 0.1 kcal/mol
SAGEKKEKEKEKKKEEEEKKKKEEEKKKEEEKKKEKTLKLEFTLPDGSKIEIEMTVEELKKLGLSPEELSAG [r5_12_TrROS_Hall] | 1.29 ± 0.12 kcal/mol
SAMMVVYYDPETGELVLVDPSEIPPELVEKGIEPVRLVPLRILVEVESEEEAEELARLFPDLVEVSLNPSAG [r14_638_TrMRF] | 1.83 ± 0.032 kcal/mol
SAGGSAGGSAGGMTITIKVPPNMTEEQLRELARELARKLGLEDVEVRIERREDGTVRITFSAGGSAGGSAGG [r7_810_TrROS_Hall] | 4.83 ± 0.12 kcal/mol
SAGGSAMTYTITLKTPGSQSLELSLDEKLKLLSQTIDPNTGVTTLTLEGDPEEAKKLEQEIKEKLASAGGSA [r15_662_JUSTAS] | 1.66 ± 0.11 kcal/mol
SAMTPEFFETIKEASREGDIAAVLEAAEAIKTEFPDTGLTVDVVIEPREDDRFVIEVRVDYPPNLEGLASAG [r14_690_TrMRF] | -0.212 ± 0.11 kcal/mol
SMKKIVLIYPESVSPEEAEKIAEEILKKLGLKKGSPVTILPLSEYESNPEMRARIEEAKKKGADIIIEVKSA [r9_1147_JUSTAS] | 2.8 ± 0.1 kcal/mol
SAGGSYLVEVVIEYPKQGVKKTVKLFVNNDPKKAEELAEDIIKELGYPDAKIEIKIIPVDPNDPRVLGSAGG [r13_682_JUSTAS] | 2.445 ± 0.022 kcal/mol
SAGGSAGGSAGGVEIVIMFPRGMPPEQFAKMIAKWLRRQGLPPNVKVDIKIIPIDPDDMSAGGSAGGSAGGS [r10_746_TrROS] | 3.35 ± 0.066 kcal/mol
SAGGGTRTINFDSPEDAEDAIEDWPDWDKVTISVPSNGEPQSIPLKIKPPPPPKYKRDENGKPEPEPDSAGG [r13_183_TrROS] | 2.95 ± 0.19 kcal/mol
SEKPLVTLELELVVETEEQARAAVEALLAALPEEEIVDIRVEVEEVDVFENGELVGRRRRVRVTIVVRRPSA [r9_605_TrROS_Hall] | 4.06 ± 0.26 kcal/mol
SAKLIRDLLRDHGFPIKNIDVQKNPNGKTYISIEIKMYTPEYKNDEGRPKPRPVEMTATFPADDLLDALSAG [r14_16_TrROS] | 0.507 ± 0.25 kcal/mol

Assay: folding stability dG unfold (combined trypsin and chymotrypsin); higher = more stable
Outline: as §1

Sequence | folding stability dG unfold
SAMKLTTLSESSDPATGVRYLTVAIPSSQDDLIKEIAEELEKKGVKATILTPNVPAGSSVTIKLEFKGKSAG [r14_354_JUSTAS] | 0.475 ± 0.17 kcal/mol
SAMDLLRERGYDVEEVTKLRDEVLPNGTIVTLYEVTVRLPDRVITTPIKVSGESEEEAEKLAYETVARESAG [r14_726_JUSTAS] | 0.543 ± 0.069 kcal/mol
SAGGSAGGSAGGSDDFVLRYRRRVRRKPKEVRLLPNGELVTGWEEEVSTFPVLTHPDDDSAGGSAGGSAGGS [r10_524_TrMRF] | 0.448 ± 0.044 kcal/mol
SAGGSAETLTITLTVKPGETVTIKALFKAEDGSVYAVTATFTAEDEGTVTITVTRLPPGVKDLADLSAGGSA [r15_909_TrROS_Hall] | 4.4 ± 0.16 kcal/mol
SAGMPEVKLLPKPDGSLVLVVVFEDKAIIIEFPPDGEGKIYIIDLKNNKITEIPFPSEDPLKAIKEALSSAG [r5_674_TrMRF] | 3.72 ± 0.27 kcal/mol
SGMIDVDLDYTTEDGRPVKVSASYDPATGVLTFKVPDNDDVIIATVTEVTTEDESVTVTLNVTRYSKELLSA [r9_587_JUSTAS] | 2.09 ± 0.14 kcal/mol
SAGGSAGGSAGEEVLTLTFPVPPDAPPPGLEAIRESLPGLEDVELDAEELPDGTVRVVLSSAGGSAGGSAGG [r17_205_TrMRF] | -0.452 ± 0.68 kcal/mol
SAGGMKKVRLTLVFESEEEALEALRKALEEAGVEVKVVRVERLPDGRVVVTVEIEVSDEVLEALKAASAGGS [r8_357_TrROS_Hall] | 3.91 ± 0.056 kcal/mol
SAGGSAGGSMKKIKVKIKITDKDGNKKEVEAEIFFDEETGKLYIKLPNGEVKEISLEDIEIVESAGGSAGGS [r12_256_TrROS_Hall] | 3.63 ± 0.09 kcal/mol
SAGGSAMTVTVELEFEPVTVTDADGKEREVPVRVKVTAKVELVRDPETGELVERVEVTSIEIEVEPSAGGSA [r15_884_TrROS_Hall] | 1.87 ± 0.15 kcal/mol
